Source: the supplement of paper PMC9170038

Tested on: MS2 coat protein
Assay: apparent KD of MS2 coat protein; designed switch direction (-1 OFF switch, 1 ON switch): -1; higher = weaker reporter binding
Summary of the method: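 Transcription of designed RNA switches on Illumina chips was done by stalled E. coli RNA polymerase. SNAP-549-labelled MS2 coat protein was then titrated in doubling steps from 0.7 or 1.5 nM to 3 µM, with steps of 0.8–1.5 h at the lowest and 10–20 min at the highest concentration. The per-design median over clusters of curve-fitted normalised fluorescence is reported as apparent KD.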

[1] = input ligand: microRNA oligo, concentration not stated
[2] = Eterna round: R95, input ligand: FMN 200 uM
[3] = Eterna round: R95, input ligand: microRNA oligo, concentration not stated
[4] = Eterna round: R95, input ligand: none

Sequence	apparent KD of MS2 coat protein (input ligand: FMN 200 uM)	apparent KD of MS2 coat protein [1]	apparent KD of MS2 coat protein (input ligand: none)	apparent KD of MS2 coat protein [2]	apparent KD of MS2 coat protein [3]	apparent KD of MS2 coat protein [4]
GCAGCAUAGUCGGAAUACGACAUACAUGAGGAUCACCCAUGUCAGGAUAUGGUCUGGAUUACAGGCCAGAAGGGACGAAGCUGC [Eli exng3 - 006] (Eterna round: R96, puzzle: Exclusion NG 3)	18.4 nM	17.6 nM	21.5 nM	–	–	–
GCAGGCUUUUGCUCGCCUUACAUGAGGAUCACCCAUGUGGGCCCGGGCCCGGGCCCGCCGGGCCCGGGCCCGGGCCC (Eterna round: R97, puzzle: Sensor, turn-off variant 1)	30.8 nM	–	32.1 nM	–	–	–
GCAGGUCAAGGAUAUACAUGAGGAUCACCCAUGUAGAUCAACCAGCGAUAGCUGGAAUGUAGAAGGUGACCUGC [E3/5-C2] (Eterna round: R97, puzzle: Exclusion 3)	67.6 nM	–	23.7 nM	–	–	–
UAUUAUCAAGCAAGAUCCCACAUGAGGAUCACCCAUGUGCUCGUCUUAUUUCCGGAAUUAUUGGGCUCUCGUCUAAU [JR_STOV1_Sub093] (Eterna round: R97, puzzle: Sensor, turn-off variant 1)	90.1 nM	–	78.2 nM	–	–	–
GCUUCUGGGCAAGGAUAUCCUGCGCUGUUCUGGUUCGUGUCUGUCACAUGAGGAUCACCCAUGUGGGAGAAGGUGCCUGUGGUG [Design 69] (Eterna round: R96, puzzle: Exclusion NG 2)	18.8 nM	11.3 nM	19.5 nM	–	–	–
GUCAUGUAAGGAUAUCUUACAUGUGACUUCGGUCACUGUCAAGAGAAGGUACAUGAGGAUCACCCAUGUUCGAC [Ex4-3: 52] (Eterna round: R96, puzzle: Exclusion 4)	26.4 nM	19.2 nM	21 nM	–	–	–
GGGCGGGCAGGAUAUACAUGAGGAUCACCCAUGUAUGUCCAAAGACAUACAUUCUUAUGUAGAAGGGCCCGCCC [Ex 4] (Eterna round: R97, puzzle: Exclusion 3)	142 nM	–	26.6 nM	–	–	–
GAAUAGAGAGGAUAUGCAAUGAAGGUAGUACGAUAUGUCUGACAUGAGGAUCACCCAUGUAGAAGGCUCAGAUC [EX2 #9] (Eterna round: R97, puzzle: Exclusion 2)	63.8 nM	–	29.8 nM	–	–	–
AAAACUAACACGAAAGUGUUAGAAUAAUAAGCUUGUGGUACAUGAGGAUCACCCAUGUCCUCAUAAGCUCGUCUUAU [Mat - Sensor v3 - Turn-off var 2 - D45] (puzzle: Sensor v3, turn-off variant 2)	–	–	–	28 nM	46.4 nM	25.8 nM
CUAUUCCGAGGAUAUACAUGAGGAUCACCCAUGUCGGGCCUCUGCGUUUAGCGCGUAAGUAGAAGGUGGGUUUC [JL Riri mod 8] (puzzle: Exclusion 3)	–	–	–	–	27.1 nM	–
CCCAUGUCAGGAUAUCUAAGAGAGGAUCAGCCCUCUCCUCCGGAGAAGGGACAUGAGGAUCACCCAUGUAAAAC [Zasorequ] (puzzle: Exclusion 4)	–	–	–	30.5 nM	145 nM	204 nM
GGUUGGCGAGGAUAUACAUGAGGAUCACCCAUGUGCGAGAAAAAAGUGAGGAAGAAAAGUAGAAGGCGCUGACG [salish99_ex3_r3_018] (puzzle: Exclusion 3)	–	–	–	238 nM	49.5 nM	58.2 nM
AAUUAUUAUCGAGGAUAUCGUAUUGAAAUAAUAUGAGAAGGCGGGAUAAACAUGAGGAUCACCCAUGUGAGCCUGAUGCUUGUG [Ex NG1 #38] (Eterna round: R96, puzzle: Exclusion NG 1)	–	14.9 nM	–	–	–	–
CAGUACUGAGGAUAUACAUGAGGAUCACCCAUGUGUUCCUGCUAGGAAACUAGCAAGGGUAGAAGGCAGUACUG [Salish 065 m4] (Eterna round: R97, puzzle: Exclusion 3)	132 nM	–	16.4 nM	–	–	–
AUAACAAGCUUUUUGUUCGUAGAACAUGACGCUCGAGUCACAUGAGGAUCACCCAUGUCAUCCAGAUUGAUAGUUGA [JR_SV3TOV2_Sub059] (puzzle: Sensor v3, turn-off variant 2)	–	–	–	35.5 nM	47.3 nM	44.3 nM
CGUACUCAAGUGAGGAUAUUGUCUCGGAUACGAAACAAGAAGGCACAUGAGGAUCACCCAUGUAGAGAGUACGA [Malc #30 mod 1] (puzzle: Brourd's mod of Exclusion 4)	–	–	–	–	14.5 nM	–
